Literature values, collected in publication PMC2880639.

Target: His62 (UniProt position 62, VESEAHPGSVQ)
Assay: kinetics
Details: dissociated species undergoing association

R67 dihydrofolate reductase (type II DHFR) (Escherichia coli (plasmid R67))
pKa: 6.6
